Results as given in patent US20200048328A1 (Bristol-Myers Squibb, published 2020).

How the values were obtained:
[1] = biological target: T1, human serum albumin (human, UniProt P02768 25-609); assay: direct binding ELISA, albumin coated
T1 construct: immobilized on chips or coated on plates elsewhere; also called HSA; HuSA
Method: (§1) Cross-species albumin binding was determined using the ELISA method described above.

[2] = biological target: T2, rhesus serum albumin (rhesus, UniProt Q28522 17-600); assay: direct binding ELISA, albumin coated
T2 construct: also called RhSA; Rh-SA
Method: as §1

[3] = biological target: T3, mouse serum albumin (mouse, UniProt P07724 25-608); assay: direct binding ELISA, albumin coated
T3 construct: also called MSA; MuSA
T3 sequence (P07724 25-608 limits assumed): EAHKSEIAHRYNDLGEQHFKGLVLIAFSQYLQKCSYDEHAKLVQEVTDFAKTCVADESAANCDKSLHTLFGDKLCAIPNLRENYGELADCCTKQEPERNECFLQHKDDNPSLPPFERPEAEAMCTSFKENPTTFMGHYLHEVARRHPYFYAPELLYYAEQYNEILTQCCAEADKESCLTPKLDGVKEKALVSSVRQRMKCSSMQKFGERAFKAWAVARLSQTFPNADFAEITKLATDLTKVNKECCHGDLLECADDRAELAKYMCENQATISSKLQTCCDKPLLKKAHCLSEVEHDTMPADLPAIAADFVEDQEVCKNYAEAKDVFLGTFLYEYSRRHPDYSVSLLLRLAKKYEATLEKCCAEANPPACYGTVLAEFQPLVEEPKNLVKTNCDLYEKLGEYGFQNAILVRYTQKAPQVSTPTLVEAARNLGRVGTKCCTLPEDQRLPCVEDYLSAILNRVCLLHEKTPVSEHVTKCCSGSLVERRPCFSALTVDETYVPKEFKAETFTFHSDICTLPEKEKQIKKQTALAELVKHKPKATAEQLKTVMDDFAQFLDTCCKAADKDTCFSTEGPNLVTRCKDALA
Method: as §1

[4] = biological target: T1, human serum albumin; assay: SPR, albumin immobilized, acetate pH 7.4
[5] = biological target: T2, rhesus serum albumin; assay: SPR, albumin immobilized, acetate pH 7.4
[6] = biological target: T3, mouse serum albumin; assay: SPR, albumin immobilized, acetate pH 7.4
[7] = biological target: T1, human serum albumin; assay: SPR, albumin immobilized, Adnectin 250 nM
[8] = biological target: T2, rhesus serum albumin; assay: SPR, albumin immobilized, Adnectin 250 nM
[9] = biological target: T3, mouse serum albumin; assay: SPR, albumin immobilized, Adnectin 250 nM
[10] = biological target: T4, rat serum albumin (rat, UniProt P02770 25-608); assay: SPR, albumin immobilized, Adnectin 250 nM
T4 construct: also called Rat SA; RSA
T4 sequence (P02770 25-608 limits assumed): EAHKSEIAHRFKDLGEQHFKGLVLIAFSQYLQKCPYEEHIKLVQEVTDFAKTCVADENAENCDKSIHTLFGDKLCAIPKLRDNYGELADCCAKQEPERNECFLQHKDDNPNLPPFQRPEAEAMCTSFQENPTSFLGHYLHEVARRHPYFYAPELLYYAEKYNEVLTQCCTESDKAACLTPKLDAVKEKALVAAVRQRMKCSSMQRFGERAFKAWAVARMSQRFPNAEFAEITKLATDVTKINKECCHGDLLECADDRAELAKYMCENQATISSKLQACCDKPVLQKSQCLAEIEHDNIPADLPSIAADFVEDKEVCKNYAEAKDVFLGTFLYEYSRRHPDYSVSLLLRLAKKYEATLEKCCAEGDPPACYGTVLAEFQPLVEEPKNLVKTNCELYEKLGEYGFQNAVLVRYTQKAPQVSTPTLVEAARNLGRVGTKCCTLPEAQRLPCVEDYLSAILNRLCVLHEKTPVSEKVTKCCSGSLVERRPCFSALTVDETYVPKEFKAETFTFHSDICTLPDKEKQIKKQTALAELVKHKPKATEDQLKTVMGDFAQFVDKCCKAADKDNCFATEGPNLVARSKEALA

T2 sequence (Q28522 17-600 limits assumed): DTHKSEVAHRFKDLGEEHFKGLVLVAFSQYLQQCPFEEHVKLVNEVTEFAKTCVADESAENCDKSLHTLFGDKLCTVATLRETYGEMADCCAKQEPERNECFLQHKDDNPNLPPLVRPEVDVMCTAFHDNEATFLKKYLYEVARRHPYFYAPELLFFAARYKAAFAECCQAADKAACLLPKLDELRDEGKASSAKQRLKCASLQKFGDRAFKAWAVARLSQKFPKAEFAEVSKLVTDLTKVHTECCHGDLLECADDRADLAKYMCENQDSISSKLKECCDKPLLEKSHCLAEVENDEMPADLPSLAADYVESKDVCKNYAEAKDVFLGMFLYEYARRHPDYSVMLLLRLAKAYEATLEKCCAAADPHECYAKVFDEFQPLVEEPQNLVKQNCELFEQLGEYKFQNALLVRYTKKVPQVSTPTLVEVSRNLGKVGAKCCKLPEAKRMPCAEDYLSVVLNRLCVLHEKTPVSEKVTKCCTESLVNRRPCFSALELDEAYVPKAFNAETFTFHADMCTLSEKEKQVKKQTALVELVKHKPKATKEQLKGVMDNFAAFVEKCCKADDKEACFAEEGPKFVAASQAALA

B1: PKE2 Adnectin 2629_E06 (designed binder)
chain: MGVSDVPRDLEVVAATPTSLLISWDAPAVTVRYYRITYGREVQKYSDLGPLYIYQEFTVPGSKSTATISGLKPGVDYTITVYAVTGSGESPASSKPISINYRTEIDKPSQHHHHHH
notes: 10Fn3 domain with modified CD loop; the entry includes the His6 tail; also called ADX_2629_E06
With B1 the EC50 [1] was 14.5 nM, the EC50 [2] was 10.5 nM and the EC50 [3] was 2.8 nM. The Kd [4] was 9.6 nM, the koff [4] was 0.000243 s⁻¹ and the kon [4] was 25400 M⁻¹ s⁻¹. It also gave a Kd [5] of 10.4 nM, a koff [5] of 0.000297 s⁻¹ and a kon [5] of 28600 M⁻¹ s⁻¹. It also gave a Kd [6] of 11.2 nM, a koff [6] of 0.000503 s⁻¹ and a koff [7] of 0.000169 s⁻¹. The koff [8] was 0.000219 s⁻¹, the koff [9] was 0.000401 s⁻¹ and the koff [10] was 0.000767 s⁻¹.
